Reference: patent US20140087995A1 (published 2014)
Numbered stars: 1 amine (or outer) side, 2 acyl side, 3 side chain; on linkers, the order of the positions; unused ones are H or OH. Bridge positions count the residues as written; N and C are the ends. Side chains are listed from the residue outwards. Ends that are not written are not given here. * marks the point of attachment. C20 diacid = O=C(O)CCCCCCCCCCCCCCCCCCC(=O)*; γGlu = O=C(O)[C@H](CCC(=O)[*:2])N[*:1]; AEEA = NCCOCCOCC(=O)O

T1: human calcitonin receptor (human, UniProt P30988 25-474)
T1 construct: whole, on cells; also called hCTR; hCT
T1 sequence (looked up): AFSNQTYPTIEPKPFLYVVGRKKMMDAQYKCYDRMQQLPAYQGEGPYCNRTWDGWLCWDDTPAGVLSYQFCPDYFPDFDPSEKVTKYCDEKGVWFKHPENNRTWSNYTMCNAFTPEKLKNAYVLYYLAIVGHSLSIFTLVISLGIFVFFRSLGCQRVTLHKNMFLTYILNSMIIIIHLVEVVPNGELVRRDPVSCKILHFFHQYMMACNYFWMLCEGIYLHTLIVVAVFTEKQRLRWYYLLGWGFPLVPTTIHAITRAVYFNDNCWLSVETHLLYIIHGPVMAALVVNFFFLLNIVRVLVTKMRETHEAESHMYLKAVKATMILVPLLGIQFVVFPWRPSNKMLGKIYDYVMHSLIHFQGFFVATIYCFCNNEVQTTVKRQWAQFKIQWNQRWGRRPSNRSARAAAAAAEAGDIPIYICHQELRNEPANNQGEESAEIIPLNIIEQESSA


Assays:
[1] = biological target: T1, human calcitonin receptor; assay: SPA competition binding, membranes with human calcitonin receptor, displacement of 125I-calcitonin (Assay VII)
Outline: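 BHK hCTR membranes 35 ng/μL + SPA beads 0.05 mg/well; buffer 50 mM Hepes pH 7.4, 1 mM CaCl2, 5 mM MgCl₂, 0.1% OA, 0.02% Tween20. 120 min, 25° C., shaking. Scintillation count; IC50 by one-site binding competition.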

[2] = biological target: T1, human calcitonin receptor; assay: ratio of IC50 at hCTR to IC50 at the human amylin receptor (reference)
Outline: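 Membranes (35 ng/μL final) + SPA beads, 50 mM Hepes pH 7.4 buffer with 1 mM CaCl2, 5 mM MgCl₂, 0.1% OA, 0.02% Tween20; 120 min, 25° C, shaking; centrifuged, counted; IC₅₀ by one-site binding competition.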

IC50 [1] [nM] | Ratio hCT/hAmylin binding [2] | Binder
25.3 | 47.5 | K([AEEA-γGlu-C20 diacid])CNTATCATQRLANFLRHSSPNFGAIPSSTNVGSETY-NH2 (disulfide 2-7; N-terminus assumed; SMILES CC[C@H](C)[C@H](NC(=O)[C@H](C)NC(=O)CNC(=O)[C@H](Cc1ccccc1)NC(=O)[C@H](CC(N)=O)NC(=O)[C@@H]1CCCN1C(=O)[C@H](CO)NC(=O)[C@H](CO)NC(=O)[C@H](Cc1c[nH]cn1)NC(=O)[C@H](CCCNC(=N)N)NC(=O)[C@H](CC(C)C)NC(=O)[C@H](Cc1ccccc1)NC(=O)[C@H](CC(N)=O)NC(=O)[C@H](C)NC(=O)[C@H](CC(C)C)NC(=O)[C@H](CCCNC(=N)N)NC(=O)[C@H](CCC(N)=O)NC(=O)[C@@H](NC(=O)[C@H](C)NC(=O)[C@@H]1CSSC[C@H](NC(=O)[C@@H](N)CCCCNC(=O)COCCOCCNC(=O)CC[C@H](NC(=O)CCCCCCCCCCCCCCCCCCC(=O)O)C(=O)O)C(=O)N[C@@H](CC(N)=O)C(=O)N[C@@H]([C@@H](C)O)C(=O)N[C@@H](C)C(=O)N[C@@H]([C@@H](C)O)C(=O)N1)[C@@H](C)O)C(=O)N1CCC[C@H]1C(=O)N[C@@H](CO)C(=O)N[C@@H](CO)C(=O)N[C@H](C(=O)N[C@@H](CC(N)=O)C(=O)N[C@H](C(=O)NCC(=O)N[C@@H](CO)C(=O)N[C@@H](CCC(=O)O)C(=O)N[C@H](C(=O)N[C@@H](Cc1ccc(O)cc1)C(N)=O)[C@@H](C)O)C(C)C)[C@@H](C)O, also called compound 26)
34.5 | 41.3 | K([γGlu-C20 diacid])CNTATCATQRLANFLRHSSPNFGAIPSSTNVGSETY-NH2 (disulfide 2-7; N-terminus assumed; SMILES CC[C@H](C)[C@H](NC(=O)[C@H](C)NC(=O)CNC(=O)[C@H](Cc1ccccc1)NC(=O)[C@H](CC(N)=O)NC(=O)[C@@H]1CCCN1C(=O)[C@H](CO)NC(=O)[C@H](CO)NC(=O)[C@H](Cc1c[nH]cn1)NC(=O)[C@H](CCCNC(=N)N)NC(=O)[C@H](CC(C)C)NC(=O)[C@H](Cc1ccccc1)NC(=O)[C@H](CC(N)=O)NC(=O)[C@H](C)NC(=O)[C@H](CC(C)C)NC(=O)[C@H](CCCNC(=N)N)NC(=O)[C@H](CCC(N)=O)NC(=O)[C@@H](NC(=O)[C@H](C)NC(=O)[C@@H]1CSSC[C@H](NC(=O)[C@@H](N)CCCCNC(=O)CC[C@H](NC(=O)CCCCCCCCCCCCCCCCCCC(=O)O)C(=O)O)C(=O)N[C@@H](CC(N)=O)C(=O)N[C@@H]([C@@H](C)O)C(=O)N[C@@H](C)C(=O)N[C@@H]([C@@H](C)O)C(=O)N1)[C@@H](C)O)C(=O)N1CCC[C@H]1C(=O)N[C@@H](CO)C(=O)N[C@@H](CO)C(=O)N[C@H](C(=O)N[C@@H](CC(N)=O)C(=O)N[C@H](C(=O)NCC(=O)N[C@@H](CO)C(=O)N[C@@H](CCC(=O)O)C(=O)N[C@H](C(=O)N[C@@H](Cc1ccc(O)cc1)C(N)=O)[C@@H](C)O)C(C)C)[C@@H](C)O, also called compound 27) [N^ε1-[(4S)-4-carboxy-4-(19-carboxynonadecanoylamino)butanoyl]-[Arg17,Pro21,Pro27,Glu35]-h-amylin]
21.3 | 49.9 | K([AEEA-γGlu-C20 diacid])CNTATCATQRLANFLRHSSPNFGAIPSSTNVGSNTY-NH2 (disulfide 2-7; N-terminus assumed; SMILES CC[C@H](C)[C@H](NC(=O)[C@H](C)NC(=O)CNC(=O)[C@H](Cc1ccccc1)NC(=O)[C@H](CC(N)=O)NC(=O)[C@@H]1CCCN1C(=O)[C@H](CO)NC(=O)[C@H](CO)NC(=O)[C@H](Cc1c[nH]cn1)NC(=O)[C@H](CCCNC(=N)N)NC(=O)[C@H](CC(C)C)NC(=O)[C@H](Cc1ccccc1)NC(=O)[C@H](CC(N)=O)NC(=O)[C@H](C)NC(=O)[C@H](CC(C)C)NC(=O)[C@H](CCCNC(=N)N)NC(=O)[C@H](CCC(N)=O)NC(=O)[C@@H](NC(=O)[C@H](C)NC(=O)[C@@H]1CSSC[C@H](NC(=O)[C@@H](N)CCCCNC(=O)COCCOCCNC(=O)CC[C@H](NC(=O)CCCCCCCCCCCCCCCCCCC(=O)O)C(=O)O)C(=O)N[C@@H](CC(N)=O)C(=O)N[C@@H]([C@@H](C)O)C(=O)N[C@@H](C)C(=O)N[C@@H]([C@@H](C)O)C(=O)N1)[C@@H](C)O)C(=O)N1CCC[C@H]1C(=O)N[C@@H](CO)C(=O)N[C@@H](CO)C(=O)N[C@H](C(=O)N[C@@H](CC(N)=O)C(=O)N[C@H](C(=O)NCC(=O)N[C@@H](CO)C(=O)N[C@@H](CC(N)=O)C(=O)N[C@H](C(=O)N[C@@H](Cc1ccc(O)cc1)C(N)=O)[C@@H](C)O)C(C)C)[C@@H](C)O, also called compound 41)
12.9 | 10.8 | K([AEEA-γGlu-C20 diacid])CNTATCATQRLANFLRHSSPNFGAIPSSTPVGSNTY-NH2 (disulfide 2-7; N-terminus assumed; SMILES CC[C@H](C)[C@H](NC(=O)[C@H](C)NC(=O)CNC(=O)[C@H](Cc1ccccc1)NC(=O)[C@H](CC(N)=O)NC(=O)[C@@H]1CCCN1C(=O)[C@H](CO)NC(=O)[C@H](CO)NC(=O)[C@H](Cc1c[nH]cn1)NC(=O)[C@H](CCCNC(=N)N)NC(=O)[C@H](CC(C)C)NC(=O)[C@H](Cc1ccccc1)NC(=O)[C@H](CC(N)=O)NC(=O)[C@H](C)NC(=O)[C@H](CC(C)C)NC(=O)[C@H](CCCNC(=N)N)NC(=O)[C@H](CCC(N)=O)NC(=O)[C@@H](NC(=O)[C@H](C)NC(=O)[C@@H]1CSSC[C@H](NC(=O)[C@@H](N)CCCCNC(=O)COCCOCCNC(=O)CC[C@H](NC(=O)CCCCCCCCCCCCCCCCCCC(=O)O)C(=O)O)C(=O)N[C@@H](CC(N)=O)C(=O)N[C@@H]([C@@H](C)O)C(=O)N[C@@H](C)C(=O)N[C@@H]([C@@H](C)O)C(=O)N1)[C@@H](C)O)C(=O)N1CCC[C@H]1C(=O)N[C@@H](CO)C(=O)N[C@@H](CO)C(=O)N[C@H](C(=O)N1CCC[C@H]1C(=O)N[C@H](C(=O)NCC(=O)N[C@@H](CO)C(=O)N[C@@H](CC(N)=O)C(=O)N[C@H](C(=O)N[C@@H](Cc1ccc(O)cc1)C(N)=O)[C@@H](C)O)C(C)C)[C@@H](C)O, also called compound 49)
48.8 | 50.3 | K([γGlu-C20 diacid])CNTATCATQRLANFLRHSSPNFGAIPSSTNVGSKTY-NH2 (disulfide 2-7; N-terminus assumed; SMILES CC[C@H](C)[C@H](NC(=O)[C@H](C)NC(=O)CNC(=O)[C@H](Cc1ccccc1)NC(=O)[C@H](CC(N)=O)NC(=O)[C@@H]1CCCN1C(=O)[C@H](CO)NC(=O)[C@H](CO)NC(=O)[C@H](Cc1c[nH]cn1)NC(=O)[C@H](CCCNC(=N)N)NC(=O)[C@H](CC(C)C)NC(=O)[C@H](Cc1ccccc1)NC(=O)[C@H](CC(N)=O)NC(=O)[C@H](C)NC(=O)[C@H](CC(C)C)NC(=O)[C@H](CCCNC(=N)N)NC(=O)[C@H](CCC(N)=O)NC(=O)[C@@H](NC(=O)[C@H](C)NC(=O)[C@@H]1CSSC[C@H](NC(=O)[C@@H](N)CCCCNC(=O)CC[C@H](NC(=O)CCCCCCCCCCCCCCCCCCC(=O)O)C(=O)O)C(=O)N[C@@H](CC(N)=O)C(=O)N[C@@H]([C@@H](C)O)C(=O)N[C@@H](C)C(=O)N[C@@H]([C@@H](C)O)C(=O)N1)[C@@H](C)O)C(=O)N1CCC[C@H]1C(=O)N[C@@H](CO)C(=O)N[C@@H](CO)C(=O)N[C@H](C(=O)N[C@@H](CC(N)=O)C(=O)N[C@H](C(=O)NCC(=O)N[C@@H](CO)C(=O)N[C@@H](CCCCN)C(=O)N[C@H](C(=O)N[C@@H](Cc1ccc(O)cc1)C(N)=O)[C@@H](C)O)C(C)C)[C@@H](C)O, also called compound 35) [N^ε1-[(4S)-4-carboxy-4-(19-carboxynonadecanoylamino)butanoyl]-[Arg17,Pro21,Pro27,Lys35]-h-amylin]
30.9 | 69.7 | K([γGlu-C20 diacid])CNTATCATQRLANFLRHSSPNFGAIPSSTNVGSNTY-NH2 (disulfide 2-7; N-terminus assumed; SMILES CC[C@H](C)[C@H](NC(=O)[C@H](C)NC(=O)CNC(=O)[C@H](Cc1ccccc1)NC(=O)[C@H](CC(N)=O)NC(=O)[C@@H]1CCCN1C(=O)[C@H](CO)NC(=O)[C@H](CO)NC(=O)[C@H](Cc1c[nH]cn1)NC(=O)[C@H](CCCNC(=N)N)NC(=O)[C@H](CC(C)C)NC(=O)[C@H](Cc1ccccc1)NC(=O)[C@H](CC(N)=O)NC(=O)[C@H](C)NC(=O)[C@H](CC(C)C)NC(=O)[C@H](CCCNC(=N)N)NC(=O)[C@H](CCC(N)=O)NC(=O)[C@@H](NC(=O)[C@H](C)NC(=O)[C@@H]1CSSC[C@H](NC(=O)[C@@H](N)CCCCNC(=O)CC[C@H](NC(=O)CCCCCCCCCCCCCCCCCCC(=O)O)C(=O)O)C(=O)N[C@@H](CC(N)=O)C(=O)N[C@@H]([C@@H](C)O)C(=O)N[C@@H](C)C(=O)N[C@@H]([C@@H](C)O)C(=O)N1)[C@@H](C)O)C(=O)N1CCC[C@H]1C(=O)N[C@@H](CO)C(=O)N[C@@H](CO)C(=O)N[C@H](C(=O)N[C@@H](CC(N)=O)C(=O)N[C@H](C(=O)NCC(=O)N[C@@H](CO)C(=O)N[C@@H](CC(N)=O)C(=O)N[C@H](C(=O)N[C@@H](Cc1ccc(O)cc1)C(N)=O)[C@@H](C)O)C(C)C)[C@@H](C)O, also called compound 48) [N^ε1-[(4S)-4-carboxy-4-(19-carboxynonadecanoylamino)butanoyl]-[Arg17,Pro21,Pro27]-h-amylin]
